Test results as given in paper PMC9249852, “Transcription factor paralogs orchestrate alternative gene regulatory networks by context-dependent cooperation with multiple cofactors”.

Columns and labels:
Conditions in all cases: protein: recombinant;recombinant; tags: N-terminal 6xHis (pQE30) and EGFP with TEV linker; C-terminal FLAG;N-terminal T7; C-terminal 6xHis; copies: 1;1; label: 5' biotin on strand 2 (SR1 primer); blunt
EGFP-Scr-FLAG;T7-Dll-His [1] = target: T1, EGFP-Scr-FLAG;T7-Dll-His (Drosophila melanogaster?;Drosophila …, UniProt P09077;P20009 1-417;1-327, |); assay: biotin-DNA pull-down, anti-FLAG western; Dll increases Scr binding, concentration-dependent; Dll on DNA not probed; Pull-down in 1 ml: 500 ul protein in dialysis buffer (20 mM HEPES pH 8.0, 200 mM NaCl, 10% glycerol, 2 mM MgCl2, 0.05% Tween-20) + 500 ul probe mix with 200 ul
T1 sequence (P09077 whole entry, chain 1 of 2): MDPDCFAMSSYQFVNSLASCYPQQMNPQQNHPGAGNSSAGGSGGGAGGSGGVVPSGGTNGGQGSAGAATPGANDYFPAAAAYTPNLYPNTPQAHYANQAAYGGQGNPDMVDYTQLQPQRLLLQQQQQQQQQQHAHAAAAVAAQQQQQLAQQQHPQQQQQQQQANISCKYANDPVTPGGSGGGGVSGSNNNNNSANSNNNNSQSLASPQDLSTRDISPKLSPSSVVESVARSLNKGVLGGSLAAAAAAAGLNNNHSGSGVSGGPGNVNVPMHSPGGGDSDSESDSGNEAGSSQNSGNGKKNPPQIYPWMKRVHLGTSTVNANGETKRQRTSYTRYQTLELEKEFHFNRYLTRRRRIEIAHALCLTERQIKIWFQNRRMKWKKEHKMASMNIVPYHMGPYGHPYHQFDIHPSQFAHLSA
T1 sequence (P20009 whole entry, chain 2 of 2): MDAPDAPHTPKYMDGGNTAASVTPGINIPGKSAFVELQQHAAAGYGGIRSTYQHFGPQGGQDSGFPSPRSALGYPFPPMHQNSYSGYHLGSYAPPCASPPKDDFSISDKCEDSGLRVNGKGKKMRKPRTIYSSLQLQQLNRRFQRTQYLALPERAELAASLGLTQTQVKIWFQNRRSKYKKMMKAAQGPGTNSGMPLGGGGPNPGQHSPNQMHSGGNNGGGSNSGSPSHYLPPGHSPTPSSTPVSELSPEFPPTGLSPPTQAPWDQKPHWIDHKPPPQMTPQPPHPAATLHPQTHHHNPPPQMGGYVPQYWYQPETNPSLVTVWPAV

EGFP-Scr-FLAG;T7-Dll-His [2] = target: T1, EGFP-Scr-FLAG;T7-Dll-His; assay: biotin-DNA pull-down, anti-FLAG western; Dll assists Scr binding; Dll on DNA not probed; Pull-down in 1 ml: 500 ul protein in dialysis buffer (20 mM HEPES pH 8.0, 200 mM NaCl, 10% glycerol, 2 mM MgCl2, 0.05% Tween-20) + 500 ul probe mix with 200 ul
EGFP-Scr-FLAG;T7-Dll-His [3] = target: T1, EGFP-Scr-FLAG;T7-Dll-His; assay: biotin-DNA pull-down, anti-FLAG western; Dll enhances Scr binding; Dll on DNA not probed; Pull-down in 1 ml: 500 ul protein in dialysis buffer (20 mM HEPES pH 8.0, 200 mM NaCl, 10% glycerol, 2 mM MgCl2, 0.05% Tween-20) + 500 ul probe mix with 200 ul

B1: probe-Scr-Dll consensus (dsDNA)
DNA 1: TGGGCCTGGTAATTAATTTAATTATCCAGGTCGTATGCCGTCTTCTGCTTG
DNA 2: CAAGCAGAAGACGGCATACGACCTGGATAATTAAATTAATTACCAGGCCCA
EGFP-Scr-FLAG;T7-Dll-His [1]
  binding result: binds

B2: probe-dpy (dpy-1) (dsDNA)
DNA 1: ATCGTTAAATTACCGCAATTTGCATGTTCGTATGCCGTCTTCTGCTTG
DNA 2: CAAGCAGAAGACGGCATACGAACATGCAAATTGCGGTAATTTAACGAT
EGFP-Scr-FLAG;T7-Dll-His [2]
  binding result: binds

B3: probe-dsx (dsx-1) (dsDNA)
DNA 1: AATATTTTATAAATTTAATAAATTGAGTCGTATGCCGTCTTCTGCTTG
DNA 2: CAAGCAGAAGACGGCATACGACTCAATTTATTAAATTTATAAAATATT
EGFP-Scr-FLAG;T7-Dll-His [3]
  binding result: binds
